Reference: paper PMC12596195, “Mei5–Sae3 stabilizes both active and inactive forms of Dmc1 filaments independently of its impact on ATP hydrolysis” (Nucleic Acids Research, 2025)
Values joined by “and” are separate entries in the source; they are usually repeats but may differ in a detail not shown here. Identical values can stand only once.

Legend:
[1] = target: T1, Dmc1-E157D (Saccharomyces cerevisiae, UniProt P25453 1-334, E157D); assay: fluorescence polarization; ATP, 70 uM Ca2+, 50 mM NaCl, 30 C; comparable to WT; FP: 25 mM HEPES pH 7.5, 1 mM Mg2+, 1 mM ATP, 1 mM DTT, 50 mM NaCl (100 mM in Fig. 3), 100 ug/ml BSA, 0.02% NP-40, 70 uM Ca2+ or as indicated, 3 nM 84-nt ssDNA; settings: protein: recombinant; tags: N-terminal 6xHis; label: 5' Alexa Fluor 488
T1 sequence: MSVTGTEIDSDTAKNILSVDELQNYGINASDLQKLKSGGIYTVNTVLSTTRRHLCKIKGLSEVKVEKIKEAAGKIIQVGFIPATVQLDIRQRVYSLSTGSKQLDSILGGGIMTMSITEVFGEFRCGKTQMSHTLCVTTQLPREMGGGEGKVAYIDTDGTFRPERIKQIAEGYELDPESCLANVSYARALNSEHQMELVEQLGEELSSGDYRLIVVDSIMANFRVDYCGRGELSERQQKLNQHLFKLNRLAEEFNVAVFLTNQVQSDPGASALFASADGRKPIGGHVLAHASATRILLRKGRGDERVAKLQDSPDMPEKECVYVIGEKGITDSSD

[2] = target: T2, Mei5-Sae3 (Saccharomyces cerevisiae, UniProt P32489;P89114 1-222;1-91); assay: fluorescence polarization; titration; very low signal at 400 nM; FP: 25 mM HEPES pH 7.5, 1 mM Mg2+, 1 mM ATP, 1 mM DTT, 50 mM NaCl (100 mM in Fig. 3), 100 ug/ml BSA, 0.02% NP-40, 70 uM Ca2+ or as indicated, 3 nM 84-nt ssDNA; settings: protein: recombinant; tags: N-terminal 6xHis on Mei5; copies: 1;1; label: 5' Alexa Fluor 488
T2 sequence 1: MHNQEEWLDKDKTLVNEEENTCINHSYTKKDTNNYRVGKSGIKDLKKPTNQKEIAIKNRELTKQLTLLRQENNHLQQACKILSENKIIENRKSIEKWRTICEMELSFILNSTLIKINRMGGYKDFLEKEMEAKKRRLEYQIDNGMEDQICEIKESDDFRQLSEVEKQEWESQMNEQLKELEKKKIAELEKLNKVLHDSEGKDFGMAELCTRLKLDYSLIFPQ
T2 sequence 2: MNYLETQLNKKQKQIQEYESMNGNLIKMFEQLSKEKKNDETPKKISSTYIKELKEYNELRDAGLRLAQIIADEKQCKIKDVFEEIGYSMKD

[3] = target: T3, Dmc1-WT (Saccharomyces cerevisiae, UniProt P25453 1-334); assay: fluorescence polarization; ATP, 250 uM Ca2+; FP: 25 mM HEPES pH 7.5, 1 mM Mg2+, 1 mM ATP, 1 mM DTT, 50 mM NaCl (100 mM in Fig. 3), 100 ug/ml BSA, 0.02% NP-40, 70 uM Ca2+ or as indicated, 3 nM 84-nt ssDNA; settings: protein: recombinant; tags: N-terminal 6xHis; label: 5' Alexa Fluor 488
T3 sequence: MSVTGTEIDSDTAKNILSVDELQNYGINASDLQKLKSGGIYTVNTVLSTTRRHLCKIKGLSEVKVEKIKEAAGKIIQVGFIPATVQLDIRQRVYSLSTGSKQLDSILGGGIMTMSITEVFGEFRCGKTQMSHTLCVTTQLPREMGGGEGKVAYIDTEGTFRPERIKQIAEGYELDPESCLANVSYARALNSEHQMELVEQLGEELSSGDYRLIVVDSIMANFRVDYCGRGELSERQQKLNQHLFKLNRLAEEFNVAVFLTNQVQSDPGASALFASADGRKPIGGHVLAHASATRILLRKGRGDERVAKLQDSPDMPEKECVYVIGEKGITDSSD

[4] = target: RecA (Escherichia coli, UniProt P0A7G6 1-353); assay: fluorescence polarization; 100 mM NaCl (90% of binding remains); FP: 25 mM HEPES pH 7.5, 1 mM Mg2+, 1 mM ATP, 1 mM DTT, 50 mM NaCl (100 mM in Fig. 3), 100 ug/ml BSA, 0.02% NP-40, 70 uM Ca2+ or as indicated, 3 nM 84-nt ssDNA; settings: label: 5' Alexa Fluor 488
Chain of RecA (P0A7G6 whole entry): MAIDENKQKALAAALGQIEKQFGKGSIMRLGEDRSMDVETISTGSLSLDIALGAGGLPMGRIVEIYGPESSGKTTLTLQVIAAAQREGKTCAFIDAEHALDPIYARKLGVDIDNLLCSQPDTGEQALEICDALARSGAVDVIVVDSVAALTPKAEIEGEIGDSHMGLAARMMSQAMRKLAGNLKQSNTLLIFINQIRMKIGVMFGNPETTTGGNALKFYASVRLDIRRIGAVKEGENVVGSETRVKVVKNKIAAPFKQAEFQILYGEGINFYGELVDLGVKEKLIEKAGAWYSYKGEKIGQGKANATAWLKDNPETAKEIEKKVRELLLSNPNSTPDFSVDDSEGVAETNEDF

[5] = target: T3, Dmc1-WT; assay: fluorescence polarization; ATP, 0 Ca2+; FP: 25 mM HEPES pH 7.5, 1 mM Mg2+, 1 mM ATP, 1 mM DTT, 50 mM NaCl (100 mM in Fig. 3), 100 ug/ml BSA, 0.02% NP-40, 70 uM Ca2+ or as indicated, 3 nM 84-nt ssDNA; settings: protein: recombinant; tags: N-terminal 6xHis; label: 5' Alexa Fluor 488
[6] = target: T4, hRad51 (Homo sapiens, UniProt Q06609 1-339); assay: fluorescence polarization; ATP; FP: 25 mM HEPES pH 7.5, 1 mM Mg2+, 1 mM ATP, 1 mM DTT, 50 mM NaCl (100 mM in Fig. 3), 100 ug/ml BSA, 0.02% NP-40, 70 uM Ca2+ or as indicated, 3 nM 84-nt ssDNA; settings: chain copies: 28; label: 5' Alexa Fluor 488
T4 sequence (Q06609 whole entry): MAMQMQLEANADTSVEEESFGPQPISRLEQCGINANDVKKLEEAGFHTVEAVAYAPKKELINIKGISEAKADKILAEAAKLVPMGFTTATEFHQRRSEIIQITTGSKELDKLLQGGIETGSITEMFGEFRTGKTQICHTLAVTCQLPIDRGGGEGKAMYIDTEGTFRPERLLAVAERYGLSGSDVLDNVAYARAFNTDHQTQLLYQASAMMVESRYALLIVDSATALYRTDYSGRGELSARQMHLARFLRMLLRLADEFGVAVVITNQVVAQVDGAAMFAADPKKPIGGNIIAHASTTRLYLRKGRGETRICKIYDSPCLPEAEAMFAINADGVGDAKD

[7] = target: T4, hRad51; assay: fluorescence polarization; ADP; FP: 25 mM HEPES pH 7.5, 1 mM Mg2+, 1 mM ATP, 1 mM DTT, 50 mM NaCl (100 mM in Fig. 3), 100 ug/ml BSA, 0.02% NP-40, 70 uM Ca2+ or as indicated, 3 nM 84-nt ssDNA; settings: chain copies: 28; label: 5' Alexa Fluor 488
[8] = target: T3, Dmc1-WT; assay: fluorescence polarization; ATP, 1 mM Ca2+; FP: 25 mM HEPES pH 7.5, 1 mM Mg2+, 1 mM ATP, 1 mM DTT, 50 mM NaCl (100 mM in Fig. 3), 100 ug/ml BSA, 0.02% NP-40, 70 uM Ca2+ or as indicated, 3 nM 84-nt ssDNA; settings: protein: recombinant; tags: N-terminal 6xHis; label: 5' Alexa Fluor 488
[9] = target: T5, Dmc1-WT;Mei5-Sae3 (Saccharomyces cerevisiae;Saccharomyces …, UniProt P25453;P32489;P89114 1-334;1-222;1-91, |); assay: fluorescence polarization; AMP-PNP, 400 nM Mei5-Sae3; FP: 25 mM HEPES pH 7.5, 1 mM Mg2+, 1 mM ATP, 1 mM DTT, 50 mM NaCl (100 mM in Fig. 3), 100 ug/ml BSA, 0.02% NP-40, 70 uM Ca2+ or as indicated, 3 nM 84-nt ssDNA; settings: protein: recombinant;recombinant; tags: N-terminal 6xHis;N-terminal 6xHis on Mei5; label: 5' Alexa Fluor 488
T5 sequence 1: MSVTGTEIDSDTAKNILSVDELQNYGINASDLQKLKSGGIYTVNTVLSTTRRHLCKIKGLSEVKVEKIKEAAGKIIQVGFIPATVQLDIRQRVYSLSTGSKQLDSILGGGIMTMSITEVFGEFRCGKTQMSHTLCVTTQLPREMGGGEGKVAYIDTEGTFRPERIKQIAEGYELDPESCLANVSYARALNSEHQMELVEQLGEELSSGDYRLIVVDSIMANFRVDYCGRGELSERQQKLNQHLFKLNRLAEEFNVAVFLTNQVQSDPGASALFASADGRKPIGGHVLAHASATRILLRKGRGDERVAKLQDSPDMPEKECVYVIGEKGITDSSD
T5 sequence 2: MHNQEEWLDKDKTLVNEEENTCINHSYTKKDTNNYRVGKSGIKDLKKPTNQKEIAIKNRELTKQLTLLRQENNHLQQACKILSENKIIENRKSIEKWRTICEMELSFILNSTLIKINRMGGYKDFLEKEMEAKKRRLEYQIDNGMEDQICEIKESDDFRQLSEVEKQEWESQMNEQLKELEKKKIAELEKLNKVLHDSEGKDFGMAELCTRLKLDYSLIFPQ
T5 sequence 3: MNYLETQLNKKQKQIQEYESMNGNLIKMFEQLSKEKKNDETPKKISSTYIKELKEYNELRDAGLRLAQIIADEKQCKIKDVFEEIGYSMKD

[10] = target: T5, Dmc1-WT;Mei5-Sae3; assay: fluorescence polarization; ATP, 70 uM Ca2+, Mei5-Sae3 (400 nM, no own signal); FP: 25 mM HEPES pH 7.5, 1 mM Mg2+, 1 mM ATP, 1 mM DTT, 50 mM NaCl (100 mM in Fig. 3), 100 ug/ml BSA, 0.02% NP-40, 70 uM Ca2+ or as indicated, 3 nM 84-nt ssDNA; settings: protein: recombinant;recombinant; tags: N-terminal 6xHis;N-terminal 6xHis on Mei5; label: 5' Alexa Fluor 488
[11] = target: RecA;Mei5-Sae3 (Escherichia coli;Saccharomyces …, UniProt P0A7G6;P32489;P89114 1-353;1-222;1-91, |); assay: fluorescence polarization; 400 nM Mei5-Sae3: no impact on Kd; FP: 25 mM HEPES pH 7.5, 1 mM Mg2+, 1 mM ATP, 1 mM DTT, 50 mM NaCl (100 mM in Fig. 3), 100 ug/ml BSA, 0.02% NP-40, 70 uM Ca2+ or as indicated, 3 nM 84-nt ssDNA; settings: protein: ;recombinant; tags: ;N-terminal 6xHis on Mei5; label: 5' Alexa Fluor 488
Chain of RecA;Mei5-Sae3 (P0A7G6 whole entry, one chain of several): as the sequence (P0A7G6 whole entry) above

[12] = target: T5, Dmc1-WT;Mei5-Sae3; assay: fluorescence polarization; ADP, 400 nM Mei5-Sae3; FP: 25 mM HEPES pH 7.5, 1 mM Mg2+, 1 mM ATP, 1 mM DTT, 50 mM NaCl (100 mM in Fig. 3), 100 ug/ml BSA, 0.02% NP-40, 70 uM Ca2+ or as indicated, 3 nM 84-nt ssDNA; settings: protein: recombinant;recombinant; tags: N-terminal 6xHis;N-terminal 6xHis on Mei5; label: 5' Alexa Fluor 488
[13] = target: T3, Dmc1-WT; assay: fluorescence polarization; ATP, 70 uM Ca2+; FP: 25 mM HEPES pH 7.5, 1 mM Mg2+, 1 mM ATP, 1 mM DTT, 50 mM NaCl (100 mM in Fig. 3), 100 ug/ml BSA, 0.02% NP-40, 70 uM Ca2+ or as indicated, 3 nM 84-nt ssDNA; settings: protein: recombinant; tags: N-terminal 6xHis; label: 5' Alexa Fluor 488

B1: 84 nt-ssDNA (ssDNA)
DNA: GGTAGCGGTTGGGTGAGTGGTGGGGAGGGTCGGGAGGTGGCGTAGAAACATGATAGGAATGTGAATGAATGAAGTACAAGTAAA
[1]
  binding result: binds
[2]
  binding result: binds
[3]
  Kd: 472 nM and 508 nM
[4]
  binding result: binds
[5]
  Kd: 1340 ± 113 nM
[6]
  Kd: 342 ± 10 nM
[7]
  Kd: 476 ± 20 nM
[8]
  Kd: 164 ± 13 nM
[9]
  fold decrease in Kd: ~1.5 fold lower Kd than Dmc1 alone
[10]
  Kd: 512 ± 25 nM
[11]
  binding result: binds
[12]
  fold decrease in Kd vs Dmc1 alone: ~1.5 fold lower Kd than Dmc1 alone
[13]
  Kd: 966 nM and 933 nM
